Test results published in patent US20250051735A1 (VANDERBILT UNIVERSITY, published 2025).

Molecular target: the molecule itself
Test: sedimentation velocity analytical ultracentrifugation (self-association)
Procedure: Sedimentation velocity data were collected at 50,000 rpm and 20° C. on a Beckman Coulter ProteomeLab XL-I analytical ultracentrifuge following standard protocols (Zhao, H., et al. Curr Protoc Protein Sci, 2013 Chapter 20, Unit20 12). 2-channel, 12 mm centerpiece cells were used, and sedimentation was monitored with the absorbance (280 nm) and Rayleigh interference (655 nm) detection systems. A continuous c(s) distribution of Lamm equation solutions, as implemented in SEDFIT (Schuck, P. Biophys J 2000 78:1606-1619), modeled the sedimentation data. […] (Cole, J. L., et al. Methods Cell Biol 2008 84:143-179) provided the solution densities ρ, solution viscosities η, and protein partial specific volumes required for the analysis.
The N-terminus is required for transposase dimerization prior to transposon end binding. Although an attempt was made to explore the role of the piggyBac transposase N-terminus using purified proteins, no soluble N-terminally truncated transposases was recovered under conditions successfully used for the WT transposase in EXPI293F cells (Chen, Q., et al. Nat Commun, 2020 11:3446). To circumvent this, a TEV protease cleavage site was introduced between resides 74 and 75 which allowed expression and purification of a full-length protein and then proteolytical removal of the first 74 amino acids.

B1: PB74-539 transposase generated by proteolytic cleavage (TEV-cleaved TEVΔ74PB1-539) (enzyme)
chain: GSSLASNRILTLPQRTIRGKNKHCWSTSKSTRRSRVSALNIVRSQRGPTRMCRNIYDPLLCFKLFFTDEIISEIVKWTNAEISLKRRESMTGATFRDTNEDEIYAFFGILVMTAVRKDNHMSTDDLFDRSLSMVYVSVMSRDRFDFLIRCLRMDDKSIRPTLRENDVFTPVRKIWDLFIHQCIQNYTPGAHLTIDEQLLGFRGRCPFRMYIPNKPSKYGIKILMMCDSGTKYMINGMPYLGRGTQTNGVPLGEYYVKELSKPVHGSCRNITCDNWFTSIPLAKNLLQEPYKLTIVGTVRSNKREIPEVLKNSRSRPVGTSMFCFDGPLTLVSYKPKPAKMVYLLSSCDEDASINESTGKPQMVMYYNQTKGGVDTLDQMCSVMTCSRKTNRWPMALLYGMINIACINSFIIYSHNVSSKGEKVQSRKKFMRNLYMSLTSSFMRKRLEAPTLKRYLRDNISNILPNE
B1: no binding.
